Test results published in patent publication US20220259593A1, “CONTROL OF MAMMALIAN GENE DOSAGE USING CRISPR” (The Regents of the University of California, priority 2019, published 2022).
Substitutions are numbered along the chain they refer to.

B1: cr885 (nucleic acid)
guide: GTTTAAGAGCTAAGCTGGAAACAGCATAGCCAGTTTAAATAAGGCTAGTCCGTTATCAACTTGAAAAAGTTGCACCGAGTCGGTGCT
modifications: listed as DNA, chemistry not fully specified
B2: cr189 (nucleic acid)
guide: B1 guide with C31A, T71G, G77A
modifications: listed as DNA, chemistry not fully specified
B3: cr008 (nucleic acid)
guide: B1 guide with T3C, C31A, T71G
modifications: listed as DNA, chemistry not fully specified
B4: cr639 (nucleic acid)
guide: B1 guide with C31A, C45A, G48T, T71G
modifications: listed as DNA, chemistry not fully specified
B5: cr844 (nucleic acid)
guide: B1 guide with C31A, A59G, T70C, T71G, C75T, C76T, G82A, G83A
modifications: listed as DNA, chemistry not fully specified
B6: cr212 (nucleic acid)
guide: B1 guide with C31A, G33A, A66G, T71G
modifications: listed as DNA, chemistry not fully specified
B7: cr746 (nucleic acid)
guide: B1 guide with C31A, G33A, A65C, T71G
modifications: listed as DNA, chemistry not fully specified
B8: cr300 (nucleic acid)
guide: B1 guide with C31A, C45A, G48T, T71G, G72A, C73T, G85A, C86T
modifications: listed as DNA, chemistry not fully specified
B9: cr440 (nucleic acid)
guide: B1 guide with C31A, G69C, T71G
modifications: listed as DNA, chemistry not fully specified
B10: cr937 (nucleic acid)
guide: B1 guide with C31A, C45G, G48C, T62C, A67G, T71G, C76A, G82T
modifications: listed as DNA, chemistry not fully specified
B11: cr679 (nucleic acid)
guide: B1 guide with G29T, C31A, T53G, T71G
modifications: listed as DNA, chemistry not fully specified
B12: cr441 (nucleic acid)
guide: B1 guide with C31A, C57A, T71G
modifications: listed as DNA, chemistry not fully specified
B13: cr086 (nucleic acid)
guide: B1 guide with A6C, G7T, C31A, T71G
modifications: listed as DNA, chemistry not fully specified
B14: cr766 (nucleic acid)
guide: B1 guide with C31A, T61A, A68T, T71G
modifications: listed as DNA, chemistry not fully specified
B15: cr442 (nucleic acid)
guide: B1 guide with C31A, T34C, T61C, A68G, T71G
modifications: listed as DNA, chemistry not fully specified
B16: cr726 (nucleic acid)
guide: B1 guide with C31A, A32T, G52A, A55C, T71G
modifications: listed as DNA, chemistry not fully specified
B17: cr549 (nucleic acid)
guide: B1 guide with C31A, T61C, A68G, T71G
modifications: listed as DNA, chemistry not fully specified
B18: cr001 (nucleic acid)
guide: B1 guide with G1A, C31A, T71G
modifications: listed as DNA, chemistry not fully specified
B19: cr793 (nucleic acid)
guide: B1 guide with C31A, T71G, G83T
modifications: listed as DNA, chemistry not fully specified
B20: cr827 (nucleic acid)
guide: B1 guide with C31A, C45A, G48T, T71G, A74T, C75A, G83T, T84A
modifications: listed as DNA, chemistry not fully specified
B21: cr927 (nucleic acid)
guide: B1 guide with C31A, T71G, A74G, G77C, C81G, T84C
modifications: listed as DNA, chemistry not fully specified
B22: cr227 (nucleic acid)
guide: B1 guide with C31A, T53C, T56A, A58C, T71G
modifications: listed as DNA, chemistry not fully specified
B23: cr598 (nucleic acid)
guide: B1 guide with C31A, T34C, T62G, A67C, T71G
modifications: listed as DNA, chemistry not fully specified
B24: cr861 (nucleic acid)
guide: B1 guide with C31A, T56G, T71A
modifications: listed as DNA, chemistry not fully specified
B25: cr406 (nucleic acid)
guide: B1 guide with C31A, C57T, T71G
modifications: listed as DNA, chemistry not fully specified
B26: cr650 (nucleic acid)
guide: B1 guide with C31A, C57G, T71G
modifications: listed as DNA, chemistry not fully specified
B27: cr631 (nucleic acid)
guide: B1 guide with C31A, C45A, G48T, T61A, A68T, T71G, C75A, G83T
modifications: listed as DNA, chemistry not fully specified
B28: cr481 (nucleic acid)
guide: B1 guide with C31A, C45G, G48C, T71G, G72A, C86T
modifications: listed as DNA, chemistry not fully specified
B29: cr282 (nucleic acid)
guide: B1 guide with C31A, T71G, G72C, C73A, A74C, T84G, G85T, C86G
modifications: listed as DNA, chemistry not fully specified
B30: cr602 (nucleic acid)
guide: B1 guide with C31A, T71G, A74G, T84C
modifications: listed as DNA, chemistry not fully specified
B31: cr017 (nucleic acid)
guide: B1 guide with A6G, C31A, T71G
modifications: listed as DNA, chemistry not fully specified
B32: cr213 (nucleic acid)
guide: B1 guide with G29A, C31A, A42G, A65G, T71G
modifications: listed as DNA, chemistry not fully specified
B33: cr338 (nucleic acid)
guide: B1 guide with C31A, T35C, T46G, T71G
modifications: listed as DNA, chemistry not fully specified
B34: cr026 (nucleic acid)
guide: B1 guide with A5G, G7T, C31A, T71G
modifications: listed as DNA, chemistry not fully specified
B35: cr458 (nucleic acid)
guide: B1 guide with C31A, A65G, T71C
modifications: listed as DNA, chemistry not fully specified
B36: cr456 (nucleic acid)
guide: B1 guide with C31A, G33A, T46A, T71G
modifications: listed as DNA, chemistry not fully specified
B37: cr913 (nucleic acid)
guide: B1 guide with C31A, T40C, T71G
modifications: listed as DNA, chemistry not fully specified
B38: cr915 (nucleic acid)
guide: B1 guide with C31A, T71G, G77C, C81G
modifications: listed as DNA, chemistry not fully specified
B39: cr479 (nucleic acid)
guide: B1 guide with C31A, C60G, G69C, T71G, C73G, G77C, C81G, G85C
modifications: listed as DNA, chemistry not fully specified
B40: cr451 (nucleic acid)
guide: B1 guide with C31A, C45A, G48T, T71G, A74T, T84A
modifications: listed as DNA, chemistry not fully specified
B41: cr803 (nucleic acid)
guide: B1 guide with C31A, C45A, G48T, A65G, T71G
modifications: listed as DNA, chemistry not fully specified

What follows are molecules tested on K562 CRISPRi cells (assay: Constant region variant library pooled growth screen, K562). Details: sgRNA constant region variants; activity relative to the original, un-modified constant region cr995.
Type: cell-based, human
Outline: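 Cells were selected with puromycin for 2 days and then kept in RPMI-1640 spinner cultures, with duplicates handled separately. Targeting sequences comprised 3 sgRNAs per essential gene for 10 genes plus six non-targeting controls. Activities were normalized against pairing with the unmodified scaffold.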

For B1, which Mean relative activity is on record?
Its Mean relative activity is 0.6498.

Which Mean relative activity does the source give for B2 here?
The Mean relative activity was 0.627.

With B3 as the molecule, how does the Mean relative activity read?
The Mean relative activity was 0.5955.

For B4, which Mean relative activity is on record?
Its Mean relative activity is 0.6057.

For B5, which Mean relative activity is on record?
Its Mean relative activity is 0.6346.

How did the Mean relative activity turn out when B6 was run?
The Mean relative activity was 0.6035.

How did the Mean relative activity turn out when B7 was run?
Its Mean relative activity is 0.629.

Which Mean relative activity does the source give for B8 here?
Its Mean relative activity is 0.592.

For B9, which Mean relative activity is on record?
Its Mean relative activity is 0.5863.

How did the Mean relative activity turn out when B10 was run?
Its Mean relative activity is 0.6137.

With B11 as the molecule, how does the Mean relative activity read?
The Mean relative activity was 0.6292.

How did the Mean relative activity turn out when B12 was run?
The Mean relative activity was 0.622.

With B13 as the molecule, how does the Mean relative activity read?
The Mean relative activity was 0.614.

For B14, which Mean relative activity is on record?
Its Mean relative activity is 1.051.

B15 was tested. Which Mean relative activity did it give?
Its Mean relative activity is 0.6169.

With B16 as the molecule, how does the Mean relative activity read?
The Mean relative activity was 0.5903.

B17 was tested. Which Mean relative activity did it give?
Its Mean relative activity is 1.051.

B18 was tested. Which Mean relative activity did it give?
Its Mean relative activity is 0.6312.

With B19 as the molecule, how does the Mean relative activity read?
Its Mean relative activity is 0.6343.

B20 was tested. Which Mean relative activity did it give?
The Mean relative activity was 0.5792.

For B21, which Mean relative activity is on record?
Its Mean relative activity is 0.5921.

For B22, which Mean relative activity is on record?
The Mean relative activity was 0.6062.

How did the Mean relative activity turn out when B23 was run?
The Mean relative activity was 0.5934.

How did the Mean relative activity turn out when B24 was run?
The Mean relative activity was 0.6319.

B25 was tested. Which Mean relative activity did it give?
The Mean relative activity was 0.6285.

Which Mean relative activity does the source give for B26 here?
Its Mean relative activity is 0.6158.

B27 was tested. Which Mean relative activity did it give?
The Mean relative activity was 0.6014.

With B28 as the molecule, how does the Mean relative activity read?
Its Mean relative activity is 0.5936.

Which Mean relative activity does the source give for B29 here?
Its Mean relative activity is 1.049.

How did the Mean relative activity turn out when B30 was run?
The Mean relative activity was 1.049.

How did the Mean relative activity turn out when B31 was run?
Its Mean relative activity is 0.639.

How did the Mean relative activity turn out when B32 was run?
Its Mean relative activity is 0.6325.

With B33 as the molecule, how does the Mean relative activity read?
Its Mean relative activity is 0.5831.

Which Mean relative activity does the source give for B34 here?
The Mean relative activity was 0.6314.

With B35 as the molecule, how does the Mean relative activity read?
The Mean relative activity was 0.5958.

Which Mean relative activity does the source give for B36 here?
The Mean relative activity was 0.5821.

For B37, which Mean relative activity is on record?
The Mean relative activity was 0.633.

With B38 as the molecule, how does the Mean relative activity read?
Its Mean relative activity is 0.5965.

For B39, which Mean relative activity is on record?
The Mean relative activity was 0.5994.

For B40, which Mean relative activity is on record?
The Mean relative activity was 0.6053.

Which Mean relative activity does the source give for B41 here?
Its Mean relative activity is 0.578.
